Test results from US20220259593A1, “CONTROL OF MAMMALIAN GENE DOSAGE USING CRISPR” (The Regents of the University of California, priority 2019, published 2022).

B1: cr554 (nucleic acid)
guide: GTTTAAGAGCTAAGCTGGAAACAGCATAGCAGGTTTAAATAAGGCTAGTCCGTTACCAACTTGAAAAAGTAGCACCGAGTCGGTGCT
modifications: listed as DNA, chemistry not fully specified
B2: cr543 (nucleic acid)
guide: GTTTAAGAGCTAAGCTGGAAACAGCATAGCAAGTCTAAATAAGGCTAGTCCGTTATCAACTTGAAAAAGTGGCACCGAGTCGGTGCT
modifications: listed as DNA, chemistry not fully specified
B3: cr740 (nucleic acid)
guide: GTTTAAGAGCTAAGCTGGAAACAGCATAGCAAGTTTAAATAAGGCTAGTCCGTTATCAACTTGAAAAAGTGCCAGCGAGTCGCTGGT
modifications: listed as DNA, chemistry not fully specified
B4: cr470 (nucleic acid)
guide: GTTTAAGAGCTAAGCTGGAAACATCATAGCAAGTTTAAATAAGGCTAGTCCGTTATCAACTTGAAAAAGTGGCACCGAGTCGGTGCT
modifications: listed as DNA, chemistry not fully specified
B5: cr816 (nucleic acid)
guide: GTTTAAGAGCTAAGCTGGAAACAGCATAGCAAGTTTAAATAAGGCTAGTCCGTTATCAACTTGAAAAAGTTGCACCGAGTCGGTGCT
modifications: listed as DNA, chemistry not fully specified
B6: cr104 (nucleic acid)
guide: GTTTAAGAGCTAAGCTGGAAACAGCATAGCAAGTTTAAATAAGGCTAGTCCGTTATCAACTTGAAAAAGTGGAACCGAGTCGGTGCT
modifications: listed as DNA, chemistry not fully specified
B7: cr697 (nucleic acid)
guide: GTTTAAGAGCTAAGCTGGAAACAGCATTGCAAGTTTAAATAAGGCGAGTCCGTTATCAACTTGCAAAAGTGGCACCGAGTCGGTGCT
modifications: listed as DNA, chemistry not fully specified
B8: cr162 (nucleic acid)
guide: GTTTAAGAGCTAAGCTGGAAACAGCATAGCAAGTTTAAATAAGGCTAGTCCGTTATCAACTTGAAAAAGTGGCACCGAGTCGGAGCT
modifications: listed as DNA, chemistry not fully specified
B9: cr407 (nucleic acid)
guide: GTTTAAGAGCTAAGCTGGAAACAGCATAGCAAGTTTAAATAAGCCTAGTGCGTTATCAACCTGAAAAGGTGGCATCGAGTCGATGCT
modifications: listed as DNA, chemistry not fully specified
B10: cr931 (nucleic acid)
guide: GTTTAAGAGCTAAGCTGGAAACAGCATAGCAAGTTTAAATAAGGCTAGTCCGTTATCAACTTGAAAAAGTGGCCCTGAGTCAGGGCT
modifications: listed as DNA, chemistry not fully specified
B11: cr391 (nucleic acid)
guide: GTTTAAGAGCTAAGCTGGAAACAGCATAGCAAGTTTAAATAAGCCTAGTGCGTTATCAACTTGAAAAAGTGGCAACGAGTCGTTGCT
modifications: listed as DNA, chemistry not fully specified
B12: cr362 (nucleic acid)
guide: GTTTAAGAGCTAAGCTGGAAACAGCATAGCAAGTTTAAATAAGGCTAGTCCGTTATCAACTTGAAAAAGTGGCACAGAGTCGGTGCT
modifications: listed as DNA, chemistry not fully specified
B13: cr517 (nucleic acid)
guide: GTTTAAGAGCTAAGCTGGAAACAGCATAGCAAGTTTAAATAAGGCTAGTCCGTTATCAACTTGAAAAAGTGGCACCGAGTCTGTGCT
modifications: listed as DNA, chemistry not fully specified
B14: cr215 (nucleic acid)
guide: GTTTAAGAGCTAAGCTGGAAACAGCATAGCAAGTTTAAATAAGGCTAGTCCGTTATCAACTTGAAAAAGTAGCACCGAGTCGGTGCT
modifications: listed as DNA, chemistry not fully specified
B15: cr911 (nucleic acid)
guide: GTTTAAGAGCTAAGCTGGAAACAGCATAGCAAGTTTAAATAAGGCACGTCCGTTATCAACTTGAAAAAGTGGCACCGAATCGGTGCT
modifications: listed as DNA, chemistry not fully specified
B16: cr876 (nucleic acid)
guide: GTTTAAGAGCTAAGCTGGAAACAGCATAGCAAGTTTAAATAAGGCTAGTCCGTTATCAACTTGAAAAAGTGGCACCGAGTCAGTGCT
modifications: listed as DNA, chemistry not fully specified
B17: cr420 (nucleic acid)
guide: GTTTAAGAGCTAAGCTGGAAACAGCATAGCAAGTTTAAATAAGGCTAGTCCGTTATCAACTTGAAAAAGTGTGACCTAGTAGGTCAT
modifications: listed as DNA, chemistry not fully specified
B18: cr435 (nucleic acid)
guide: GTTTAAGAGCTAAGCTGGAAACAGCATAGCCAGTTTAAATAAGGCTAGTCCGGTATCAACTTGAAAAAGTGGCACCGAGTCGGTGCT
modifications: listed as DNA, chemistry not fully specified
B19: cr733 (nucleic acid)
guide: GTTTAAGAGCTAAGCTGGAAACAGCATAGCAAGTTTAAATAAGGCTAGTCCGTTATCAACTTGAAAAAGTGGCAAAGAGTCTTTGCT
modifications: listed as DNA, chemistry not fully specified
B20: cr621 (nucleic acid)
guide: GTTTAAGAGCTAAGCTGGAAACAGCATAGCAAGTTTAAATAAGACTAGTTCGTTATCAACGTGAAAACGTGGCACCAAGTTGGTGCT
modifications: listed as DNA, chemistry not fully specified
B21: cr919 (nucleic acid)
guide: GTTTAAGAGCTAAGCTGGAAACAGCATAGCAAGTTTAAATAAGGCTAGTCCGTTATCACCTGGAAACAGGGGCACCGAGTCGGTGCT
modifications: listed as DNA, chemistry not fully specified
B22: cr506 (nucleic acid)
guide: GTTTAAGAGCTAAGCTGGAAACAGCATAGCAAGTTTAAATAAGCCTAGTGCGTTATCAACTTGAAAAAGTGGGACCGAGTCGGTCCT
modifications: listed as DNA, chemistry not fully specified
B23: cr516 (nucleic acid)
guide: GTTTAAGAGCTAAGCTGGAAACAGCATAGCAAGTTTAAATAAGCCTAGTGCGTTATCAGCTTGAAAAAGCGGCACCGAGTCGGTGCT
modifications: listed as DNA, chemistry not fully specified
B24: cr585 (nucleic acid)
guide: GTTTAAGAGCTAAGCTGGAAACAGCATAGCAAGTTTAAATAAGGCTAGTCCGTTATCAACTTGAAAAAGTGGCTCCGAGTCGGAGCT
modifications: listed as DNA, chemistry not fully specified
B25: cr916 (nucleic acid)
guide: GTTTAAGAGCTAAGCTGGAAACAGCATAGCAAGTTTAAATAAGACTAGTTCGTTATCAACTTGAGAAAGTGGCACCGAGTCGGTGCT
modifications: listed as DNA, chemistry not fully specified
B26: cr678 (nucleic acid)
guide: GTTTAAGAGCTAAGCTGGAAACAGCATAGCAAGTTTAAATAAGGCTAGTCCGTTATCAACTTGAAAAAGTGGCACCGAGTCGGTACT
modifications: listed as DNA, chemistry not fully specified
B27: cr905 (nucleic acid)
guide: GTTTAAGAGCTAAGCTGGAAACAGCATAGCAAGTTTAAATAAGGCTAGTCCGTTATCAACTTGAAAAAGTGATACCAAGTTGGTATT
modifications: listed as DNA, chemistry not fully specified
B28: cr871 (nucleic acid)
guide: GTTTAAGAGCTAAGCTGGAAACAGCATAGCAAGTTTAAATAAGCCTAGTGCGTTATCAACTTGAAAAAGTGGCACCGAGTCGGTGCT
modifications: listed as DNA, chemistry not fully specified
B29: cr394 (nucleic acid)
guide: GTTTAAGAGCTAAGCTGGAAACAGCATAGCAAGTTTAAATAAGGCTAGTCCGTTATCAACTTGAAACAGTGGCACCGAGTCGGTGCT
modifications: listed as DNA, chemistry not fully specified
B30: cr289 (nucleic acid)
guide: GTTTAAGAGCTAAGCTGGAAACAGCATAGCAAGTTTAAATAAGGCTAGTCCGTTATCAACTGGAAACAGTGGCACCGAGTCGGTGCT
modifications: listed as DNA, chemistry not fully specified
B31: cr601 (nucleic acid)
guide: GTTTAAGAGCTAAGCTGGAAACAGCATAGAAAGTTTAAATAAGGCTAGTCCGTTATCAACTTGAAAAAGTGGCACCGAGTCGGTGCT
modifications: listed as DNA, chemistry not fully specified

test system: K562 CRISPRi cells; assay: Constant region variant library pooled growth screen, K562; format: cell-based, human; conditions: sgRNA constant region variants; activity relative to the original, un-modified constant region cr995
Summary of the method: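 Growth screens in K562 CRISPRi cells were harvested 4-8 days post-selection at >2000× library coverage. Each variant's phenotype was referenced to the unmodified constant region with the same targeting sequence.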

**Q.** For B1, which Mean relative activity is on record?
**A.** The Mean relative activity was 0.8332.

**Q.** Which Mean relative activity does the source give for B2 here?
**A.** The Mean relative activity was 0.8231.

**Q.** Which Mean relative activity does the source give for B3 here?
**A.** Its Mean relative activity is 0.8153.

**Q.** With B4 as the molecule, how does the Mean relative activity read?
**A.** The Mean relative activity was 0.809.

**Q.** Which Mean relative activity does the source give for B5 here?
**A.** Its Mean relative activity is 0.8315.

**Q.** With B6 as the molecule, how does the Mean relative activity read?
**A.** The Mean relative activity was 0.8063.

**Q.** How did the Mean relative activity turn out when B7 was run?
**A.** Its Mean relative activity is 0.8183.

**Q.** How did the Mean relative activity turn out when B8 was run?
**A.** The Mean relative activity was 0.8263.

**Q.** How did the Mean relative activity turn out when B9 was run?
**A.** Its Mean relative activity is 0.8278.

**Q.** Which Mean relative activity does the source give for B10 here?
**A.** Its Mean relative activity is 0.8044.

**Q.** For B11, which Mean relative activity is on record?
**A.** The Mean relative activity was 0.8216.

**Q.** With B12 as the molecule, how does the Mean relative activity read?
**A.** Its Mean relative activity is 0.8214.

**Q.** How did the Mean relative activity turn out when B13 was run?
**A.** Its Mean relative activity is 0.8173.

**Q.** Which Mean relative activity does the source give for B14 here?
**A.** The Mean relative activity was 0.8059.

**Q.** For B15, which Mean relative activity is on record?
**A.** Its Mean relative activity is 0.8101.

**Q.** How did the Mean relative activity turn out when B16 was run?
**A.** Its Mean relative activity is 0.8037.

**Q.** How did the Mean relative activity turn out when B17 was run?
**A.** The Mean relative activity was 0.8229.

**Q.** How did the Mean relative activity turn out when B18 was run?
**A.** The Mean relative activity was 0.8281.

**Q.** Which Mean relative activity does the source give for B19 here?
**A.** The Mean relative activity was 0.807.

**Q.** With B20 as the molecule, how does the Mean relative activity read?
**A.** The Mean relative activity was 0.818.

**Q.** B21 was tested. Which Mean relative activity did it give?
**A.** Its Mean relative activity is 1.056.

**Q.** With B22 as the molecule, how does the Mean relative activity read?
**A.** Its Mean relative activity is 0.8078.

**Q.** B23 was tested. Which Mean relative activity did it give?
**A.** The Mean relative activity was 0.8009.

**Q.** B24 was tested. Which Mean relative activity did it give?
**A.** Its Mean relative activity is 1.056.

**Q.** For B25, which Mean relative activity is on record?
**A.** Its Mean relative activity is 0.8207.

**Q.** How did the Mean relative activity turn out when B26 was run?
**A.** The Mean relative activity was 0.8081.

**Q.** Which Mean relative activity does the source give for B27 here?
**A.** The Mean relative activity was 0.8019.

**Q.** How did the Mean relative activity turn out when B28 was run?
**A.** Its Mean relative activity is 0.8313.

**Q.** How did the Mean relative activity turn out when B29 was run?
**A.** Its Mean relative activity is 1.055.

**Q.** How did the Mean relative activity turn out when B30 was run?
**A.** Its Mean relative activity is 1.102.

**Q.** B31 was tested. Which Mean relative activity did it give?
**A.** The Mean relative activity was 0.8216.
